The labels stand for the following.
B1: Protein LYRIC (Homo sapiens), Q86UE4 (parent)
chain: MAARSWQDELAQQAEEGSARLREMLSVGLGFLRTELGLDLGLEPKRYPGWVILVGTGALGLLLLFLLGYGWAAACAGARKKRRSPPRKREEAAAVPAAAPDDLALLKNLRSEEQKKKNRKKLSEKPKPNGRTVEVAEGEAVRTPQSVTAKQPPEIDKKNEKSKKNKKKSKSDAKAVQNSSRHDGKEVDEGAWETKISHREKRQQRKRDKVLTDSGSLDSTIPGIENTITVTTEQLTTASFPVGSKKNKGDSHLNVQVSNFKSGKGDSTLQVSSGLNENLTVNGGGWNEKSVKLSSQISAGEEKWNSVSPASAGKRKTEPSAWSQDTGDANTNGKDWGRSWSDRSIFSGIGSTAEPVSQSTTSDYQWDVSRNQPYIDDEWSGLNGLSSADPNSDWNAPAEEWGNWVDEERASLLKSQEPIPDDQKVSDDDKEKGEGALPTGKSKKKKKKKKKQGEDNSTAQDTEELEKEIREDLPVNTSKTRPKQEKAFSLKTISTSDPAEVLVKNSQPIKTLPPATSTEPSVILSKSDSDKSSSQVPPILQETDKSKSNTKQNSVPPSQTKSETSWESPKQIKKKKKARRET

In one assay the parent is B1. The conditions noted are these: with snd1_human SND1, Q7KZF4.
snd1_human SND1, Q7KZF4, sequence (Q7KZF4 whole entry): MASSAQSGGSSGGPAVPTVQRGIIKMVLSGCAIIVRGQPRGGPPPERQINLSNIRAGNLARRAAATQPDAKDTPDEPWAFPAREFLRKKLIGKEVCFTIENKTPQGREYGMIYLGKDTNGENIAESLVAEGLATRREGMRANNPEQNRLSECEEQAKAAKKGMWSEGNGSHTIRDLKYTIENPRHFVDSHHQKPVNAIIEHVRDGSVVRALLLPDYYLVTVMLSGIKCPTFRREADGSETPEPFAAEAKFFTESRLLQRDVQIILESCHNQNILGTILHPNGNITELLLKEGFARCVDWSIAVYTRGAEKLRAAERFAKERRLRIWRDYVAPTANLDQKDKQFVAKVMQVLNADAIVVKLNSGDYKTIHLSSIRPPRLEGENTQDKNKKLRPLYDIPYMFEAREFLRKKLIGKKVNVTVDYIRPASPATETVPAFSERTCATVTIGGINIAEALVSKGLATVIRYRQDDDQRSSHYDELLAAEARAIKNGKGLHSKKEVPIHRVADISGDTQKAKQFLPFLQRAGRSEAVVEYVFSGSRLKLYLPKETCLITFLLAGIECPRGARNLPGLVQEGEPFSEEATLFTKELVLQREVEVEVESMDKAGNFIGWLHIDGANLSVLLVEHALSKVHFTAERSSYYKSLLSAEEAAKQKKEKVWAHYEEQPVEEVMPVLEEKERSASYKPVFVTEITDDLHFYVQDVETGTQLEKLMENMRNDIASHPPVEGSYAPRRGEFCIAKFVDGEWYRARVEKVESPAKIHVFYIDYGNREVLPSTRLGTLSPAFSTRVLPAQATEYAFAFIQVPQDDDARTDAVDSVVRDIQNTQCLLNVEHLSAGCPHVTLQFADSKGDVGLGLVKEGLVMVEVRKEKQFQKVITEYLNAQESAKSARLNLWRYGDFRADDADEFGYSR
As for MAARSWQDELAQQAEEGSARLREMLSVGLGFLRTELGLDLGLEPKRYPGWVILVGTGALGLLLLFLLGYGWAAACAGARKKRRSPPRKREEAAAVPAAAPDDLALLKNLRSEEQKKKNRKKLSEKPKPNGRTVEVAEGEAVRTPQSVTAKQPPEIDKKNEKSKKNKKKSKSDAKAVQNSSRHDGKEVDEGAWETKISHREKRQQRKRDKVLTDSGSLDSTIPGIENTITVTTEQLTTASFPVGSKKNKGDSHLNVQVSNFKSGKGDSTLQVSSGLNENLTVNGGGWNEKSVKLSSQISAGEEKWNSVSPASAGKRKTEPSAWSQDTGDANTNGKDWGRSWSDRSIFSGIGSTAEPVSQSTTSDYQWDVSRNQPYIDDEWSGLNGLSSADPNSDDNAPAEEWGNWVDEERASLLKSQEPIPDDQKVSDDDKEKGEGALPTGKSKKKKKKKKKQGEDNSTAQDTEELEKEIREDLPVNTSKTRPKQEKAFSLKTISTSDPAEVLVKNSQPIKTLPPATSTEPSVILSKSDSDKSSSQVPPILQETDKSKSNTKQNSVPPSQTKSETSWESPKQIKKKKKARRET [W394D], the “effect of a mutation on the interaction” value was “disrupting interaction strength”.
The same measure, in the same setting: the same measure for MAARSWQDELAQQAEEGSARLREMLSVGLGFLRTELGLDLGLEPKRYPGWVILVGTGALGLLLLFLLGYGWAAACAGARKKRRSPPRKREEAAAVPAAAPDDLALLKNLRSEEQKKKNRKKLSEKPKPNGRTVEVAEGEAVRTPQSVTAKQPPEIDKKNEKSKKNKKKSKSDAKAVQNSSRHDGKEVDEGAWETKISHREKRQQRKRDKVLTDSGSLDSTIPGIENTITVTTEQLTTASFPVGSKKNKGDSHLNVQVSNFKSGKGDSTLQVSSGLNENLTVNGGGWNEKSVKLSSQISAGEEKWNSVSPASAGKRKTEPSAWSQDTGDANTNGKDWGRSWSDRSIFSGIGSTAEPVSQSTTSDYQWDVSRNQPYIDDEWSGLNGLSSADPNSDWNAPARRDGNWVDEERASLLKSQEPIPDDQKVSDDDKEKGEGALPTGKSKKKKKKKKKQGEDNSTAQDTEELEKEIREDLPVNTSKTRPKQEKAFSLKTISTSDPAEVLVKNSQPIKTLPPATSTEPSVILSKSDSDKSSSQVPPILQETDKSKSNTKQNSVPPSQTKSETSWESPKQIKKKKKARRET [E399R;E400R;W401D]: “disrupting interaction strength”.
Regarding MAARSWQDELAQQAEEGSARLREMLSVGLGFLRTELGLDLGLEPKRYPGWVILVGTGALGLLLLFLLGYGWAAACAGARKKRRSPPRKREEAAAVPAAAPDDLALLKNLRSEEQKKKNRKKLSEKPKPNGRTVEVAEGEAVRTPQSVTAKQPPEIDKKNEKSKKNKKKSKSDAKAVQNSSRHDGKEVDEGAWETKISHREKRQQRKRDKVLTDSGSLDSTIPGIENTITVTTEQLTTASFPVGSKKNKGDSHLNVQVSNFKSGKGDSTLQVSSGLNENLTVNGGGWNEKSVKLSSQISAGEEKWNSVSPASAGKRKTEPSAWSQDTGDANTNGKDWGRSWSDRSIFSGIGSTAEPVSQSTTSDYQWDVSRNQPYIDDEWSGLNGLSSADPNSDWNAPAEEDGNWVDEERASLLKSQEPIPDDQKVSDDDKEKGEGALPTGKSKKKKKKKKKQGEDNSTAQDTEELEKEIREDLPVNTSKTRPKQEKAFSLKTISTSDPAEVLVKNSQPIKTLPPATSTEPSVILSKSDSDKSSSQVPPILQETDKSKSNTKQNSVPPSQTKSETSWESPKQIKKKKKARRET [W401D], the “effect of a mutation on the interaction” value is “decreasing interaction strength”.
Same read-out and setting: then MAARSWQDELAQQAEEGSARLREMLSVGLGFLRTELGLDLGLEPKRYPGWVILVGTGALGLLLLFLLGYGWAAACAGARKKRRSPPRKREEAAAVPAAAPDDLALLKNLRSEEQKKKNRKKLSEKPKPNGRTVEVAEGEAVRTPQSVTAKQPPEIDKKNEKSKKNKKKSKSDAKAVQNSSRHDGKEVDEGAWETKISHREKRQQRKRDKVLTDSGSLDSTIPGIENTITVTTEQLTTASFPVGSKKNKGDSHLNVQVSNFKSGKGDSTLQVSSGLNENLTVNGGGWNEKSVKLSSQISAGEEKWNSVSPASAGKRKTEPSAWSQDTGDANTNGKDWGRSWSDRSIFSGIGSTAEPVSQSTTSDYQWDVSRNQPYIDDEWSGLNGLSSARPNSRDNAPAEEWGNWVDEERASLLKSQEPIPDDQKVSDDDKEKGEGALPTGKSKKKKKKKKKQGEDNSTAQDTEELEKEIREDLPVNTSKTRPKQEKAFSLKTISTSDPAEVLVKNSQPIKTLPPATSTEPSVILSKSDSDKSSSQVPPILQETDKSKSNTKQNSVPPSQTKSETSWESPKQIKKKKKARRET [D389R;D393R;W394D], with “disrupting interaction strength”.

Variants of B1 are the subject of the next assay. Conditions: with snd1_human SND1, Q7KZF4. The source holds these as a separate data set.
As to MAARSWQDELAQQAEEGSARLREMLSVGLGFLRTELGLDLGLEPKRYPGWVILVGTGALGLLLLFLLGYGWAAACAGARKKRRSPPRKREEAAAVPAAAPDDLALLKNLRSEEQKKKNRKKLSEKPKPNGRTVEVAEGEAVRTPQSVTAKQPPEIDKKNEKSKKNKKKSKSDAKAVQNSSRHDGKEVDEGAWETKISHREKRQQRKRDKVLTDSGSLDSTIPGIENTITVTTEQLTTASFPVGSKKNKGDSHLNVQVSNFKSGKGDSTLQVSSGLNENLTVNGGGWNEKSVKLSSQISAGEEKWNSVSPASAGKRKTEPSAWSQDTGDANTNGKDWGRSWSDRSIFSGIGSTAEPVSQSTTSDYQWDVSRNQPYIDDEWSGLNGLSSARPNSRDNAPAEEWGNWVDEERASLLKSQEPIPDDQKVSDDDKEKGEGALPTGKSKKKKKKKKKQGEDNSTAQDTEELEKEIREDLPVNTSKTRPKQEKAFSLKTISTSDPAEVLVKNSQPIKTLPPATSTEPSVILSKSDSDKSSSQVPPILQETDKSKSNTKQNSVPPSQTKSETSWESPKQIKKKKKARRET [D389R;D393R;W394D], the “effect of a mutation on the interaction” value is “disrupting interaction strength”.
